Measured values reported in patent publication US6924101B2, “Methods for identifying anti-microbial agents” (priority 1997, dated 2005).

Columns and labels:
JRG58201 = assay: Growth and viability of ampG null strain after IPTG induction; type: cell-based, E. coli
From the text: Lethality of pJB59 antisense RNA requires inhibition of orf1. The polycistronic mRNA that encodes ampG in E. coli has an upstream ORF, termed orf1 herein: The antisense RNA made by pJB59 is complementary to orf1. In order to determine whether translational inhibition of orf1 or of ampG was the cause of the lethality of pJB59 antisense RNA, pJB59 was transformed into the ampG null strain, JRG58201. Jacobs, C., et al, EMBO J. 13:4684-4694 (1993). JRG58201 has a defect in the ampG gene but has no known defect in the orf1 gene.

E. coli DH5α [1] = assay: Colony formation on M9 agar with or without 1 mM IPTG (FIG. 6); type: cell-based; settings: M9 agar containing 1 mM IPTG vs without IPTG
Experimental: FIG. 6 is a bar graph showing the effect of inducing lepB, ddlB, viaA or orf1 antisense RNA expression on colony formation in E. coli DH5α. Striped bars indicate colony forming units (CFUs) per ml of culture for strains grown on semi-solid media in the absence of the inducer IPTG. Solid bars indicate CFUs/ml for strains grown in the presence of IPTG.
Cell proliferation for each strain was measured by diluting overnight cultures 1:10^6 into M9 medium. After growth to an OD450 of 0.2, aliquots of each culture were plated on M9 agar without IPTG or M9 agar containing 1 mM IPTG. […] Colony formation by cells carrying pJB57 was inhibited more than 100 fold. The colony formation of strains carrying pJB59 was inhibited more than 1000 fold.

E. coli DH5α [2] = assay: Viability (CFUs/ml) over time after induction of antisense RNA expression (FIG. 8); type: cell-based
Experimental: FIG. 8 is a graph showing the viability of DH5α strains at various times after induction of antisense RNA expression. Strains contained the following plasmids: squares: pJB37; diamonds: pJB53; circles: pJB57; and triangles; pJB59.
Inhibition of viability by antisense RNA. The viability over time of the four strains expressing the antisense RNAs described above was also examined. Overnight cultures of each strain were diluted 1:100 into LB medium containing 1 mM IPTG. Aliquots of each culture were plated on LB agar containing ampicillin at intervals thereafter to determine CFUs/ml.

E. coli DH5α [3] = assay: Growth curves (OD450) in liquid LB media with or without 1 mM IPTG (FIG. 7); type: cell-based
Experimental: FIG. 7 is a graph showing growth curves of E. coli DH5α containing pJB37, pJB57 and pJB59 in liquid media in the presence and absence of IPTG.
Inhibition of bacterial growth after IPTG induction. Growth curves were carried out by back diluting cultures 1:20 into fresh media with or without 1 mM IPTG and measuring the OD450 every 30 minutes (min). To study transcriptional induction in exponential phase, cultures were diluted 1:10^6 or as indicated. The viability (CFU/ml) was determined over time by plating aliquots of the culture on agar with or without IPTG.
Kinetics of inhibition during exponential growth by antisense RNA. The kinetics of antisense inhibition was examined for strains carrying pJB37, pJB53, pJB57 or pJB59. Overnight cultures of each strain were diluted 1:20 into LB media containing 1 mM IPTG or LB media without IPTG. The OD450 was then measured on the liquid cultures. […] After induction of antisense RNA expression, a few generations of cell division presumably are required in order to dilute endogenous gene product present at the initiation of induction.

E. coli DH5α [4] = assay: Effect of different concentrations of inducer IPTG on viability (FIG. 9); type: cell-based
Experimental: FIG. 9 is a graph showing the effect of varying concentrations of inducer on the viability of DH5α containing pJB37 (panel A) or pJB53 (panel B).
Effect of different concentrations of transcriptional inducer. Experiments were carried out to determine the effect of different concentrations of the inducer IPTG on bacterial growth and viability with the two clones where antisense RNA is bacteriocidal. Overnight cultures were diluted 1:100 into LB media containing 0, 10, 100 500 or 1000 micro molar (μM) IPTG. At the time of induction and every 2 hours thereafter, aliquots were plated on LB/ampicillin agar to determine CFUs/ml.

Salmonella typhimurium = assay: Growth of transformants plated on LB with or without 1 mM IPTG; type: cell-based
Experimental: In order to examine the effectiveness of the antisense RNAs in a related species, Salmonella typhimurium was transformed with pJB37 or pJB53. The ampicillin-resistant transformants were plated on LB with or without 1 mM IPTG.

Molecule	growth and viability after IPTG induction (JRG58201)	inhibition of colony formation (E. coli DH5α [1])	bacteriocidal or bacteriostatic (E. coli DH5α [2])	growth and viability when antisense RNA is expressed (E. coli DH5α [2]; 1 mM IPTG, LB)	time after induction until significant effect on the increase in cell mass (OD450) (E. coli DH5α [3]; LB, 1 mM IPTG)	time after which cell mass stopped increasing (did not decrease) (E. coli DH5α [3]; LB, 1 mM IPTG)	effect on colony forming ability (E. coli DH5α [4]; 10 μm IPTG)	anti-proliferative effect (E. coli DH5α [4]; 500 μm IPTG)	effect on the time of cell death of a 2 fold increase of IPTG (E. coli DH5α [4]; 1000 μm IPTG)	effect on cell growth or colony formation when induced with IPTG (E. coli DH5α [1])	reduction of viability (E. coli DH5α [2]; 6 hours after induction, 1 mM IPTG, LB)	time at which cell mass began to decrease (E. coli DH5α [3]; LB, 1 mM IPTG)	cell lysis, microscopic examination (E. coli DH5α [3]; after induction of antisense RNA)	growth after induction of the antisense RNA (Salmonella typhimurium)
pJB59: pLEX5BA with a 451 bp EcoRI/BamHI fragment of orf1/ampG in antisense orientation; expresses antisense RNA (SEQ ID NO: 7) (nucleic acid, expressed from plasmid pLEX5BA; Escherichia coli ampG) antisense: GAAUUCGUGGAUGCUGGUGUCCUGAGACAUAUCAGCGAUGGUAUCGGUCAGCACACUGUUAACCGCAUCGGCGAUAUUUUUGUUGGAGGCCUGGAACGCACCUUCAACGUUGUAGCUGGCACGAUAGUUUUUGGUCAUUUUGUUGCCAUUCUGCGCGGUAGCGAUGAUGGCGAUAUCCGCUUUGGUCGCGAUGUUGUAGCGCACGUUGCCCUGGGACACGUCAGCAUACAGUUGGCUAACGAUGAUUUGCAGAUUAACCGGGCCAUUCGGACCAACCAUGUAACCACGCGCGGUCAUCUGUUUUUCCAGCACUUCUUGCAGCAGGAAACGCAGAUCGCGGGAGGCGGUCAGGGUAACGAUUUGAUUAUCGCGGGUGACUUUUGCCAGCGCCUGAUCGGUACGCUGAUCGGCACCAUUAAUGCUUACGGUGACGCCCAUCAGGCUUGGAUCC	inhibited	more than 1000 fold	bacteriostatic	growth is inhibited but viability is not reduced	about 3 hours	about 3 hours	–	–	–	–	–	–	–	–
pJB53: pLEX5BA with a 714 bp PstI/HindIII fragment of viaA in antisense orientation; expresses antisense RNA (SEQ ID NO: 4) (nucleic acid, expressed from plasmid pLEX5BA; Escherichia coli viaA) antisense: CUGCAGGCUGAGGUGUUGCCCUUACAAAUGCAACAACGACAUGGAUUACAACACCCUCAUAAACAAAGGGCAAUCACCUGAUCUAAGCUCUUACCUAUGACAGUGAUAGGUUAUGCCUUUUACUCGACUUUUGCACUGACUGAAAAGGACAAAUUAAUGUUAAAAAAGAUACUUUUACUGGCUCUGCUUCCUGCAAUCGCCUUCGCAGAGGAACUUCCUGCUCCAGUAAAAGCGAUUGAAAAACAGGGCAUUACAAUCAUCAAAACAUUCGAUGCCCCCGGAGGAAUGAAAGGUUAUCUCGGAAAGUAUCAGGAUAUGGGCGUCACCAUCUACCUGACUCCAGAUGGUAAGCACGCUAUCUCUGGUUACAUGUACAACGAGAAAGGUGAAAACCUGAGUAACACACUUAUCGAAAAAGAAAUUUACGCACCAGCCGGACGCGAAAUGUGGCAACGGAUGGAACAAUCCCACUGGCUCCUCGACGGUAAAAAAGAUGCGCCGGUCAUUGUCUACGUCUUCGCCGAUCCGUUCUGCCCAUAUUGUAAACAGUUCUGGCAGCAGGCGCGCCCGUGGGUAGAUUCUGGCAAAGUGCAAUUAAGAACAUUGUUGGUUGGGGUUAUCAAGCCAGAAAGCCCGGCGACAGCAGCGGCAAUUCUUGCCUCCAAAGAUCCCGCAAAAACCUGGCAACAAUAUGAAGCCUCUGGUGGCAAGCUU	–	–	bacteriocidal	–	–	–	minimal effect	near maximal	little effect	unable to form colonies	about 3 logs	about 4 hours	did not	greatly inhibited
